According to patent US20260241049A1, “Radiopharmaceutical Compositions Targeting Glypican-3 and Uses Thereof” (RayzeBio, Inc., priority 2023, published 2026):
Starred links: 1 amine or outer side, 2 acyl side, 3 side chain; linkers in the order of their positions; H or OH if unused. Positions of bridges follow the written chain, without caps; N, C: chain ends. Non-standard residues stand in square brackets, D forms with d. Groups on a side chain read outwards from the residue. Primed or numbered codes have the meaning given here. F4amCOpipzaa = 2-amino-3-(4-((4-(carboxymethyl)piperazine-1-carboxamido)methyl)phenyl)propanoic acid, O=C(NCc1ccc(C[C@H](N[*:1])C(=O)[*:2])cc1)N1CCN(CC(=O)[*:3])CC1; F4aao(3) = 4-(carboxymethoxy)-L-phenylalanine ((S)-2-amino-3-(4-(carboxymethoxy)phenyl)propanoic acid), O=C([C@H](Cc1ccc(OCC(=O)[*:3])cc1)N[*:1])[*:2]; MeA4paa = 3-(1-(carboxymethyl)piperidin-4-yl)-2-(methylamino)propanoic acid, CN([C@@H](CC1CCN(CC(=O)[*:3])CC1)C(=O)[*:2])[*:1]; Thr(Me) = O-methyl threonine, (3R)-2-amino-3-methoxybutanoic acid, CO[C@H](C)[C@H](N[*:1])C(=O)[*:2]; F4aao = 4-(carboxymethoxy)-L-phenylalanine, O=C([C@H](Cc1ccc(OCC(=O)[*:3])cc1)N[*:1])[*:2]; F4aao(4) = 4-(carboxymethoxy)phenylalanine, O=C([C@H](Cc1ccc(OCC(=O)[*:3])cc1)N[*:1])[*:2]; MeHseMe(6) = (2S)-4-methoxy-2-(methylamino)butanoic acid, COCC[C@@H](C(=O)[*:2])N(C)[*:1]; MeHseMe = N-methyl-O-methyl-L-homoserine, COCC[C@@H](C(=O)[*:2])N(C)[*:1]; Thr(Me)(3) = TMe, O-methyl-L-threonine, CO[C@H](C)[C@H](N[*:1])C(=O)[*:2]; Phe(4-(1-Me-pyrazol-4-yl)) = Cn1cc(-c2ccc(C[C@H](N)C(=O)O)cc2)cn1; DOTA‑Lu(3) = DOTA chelate with cold lutetium-175, amide-linked; TMe = O-methyl-L-threonine, CO[C@H](C)[C@H](N[*:1])C(=O)[*:2]; NMeAla(isoquinolin-7-yl) = CN[C@@H](Cc1ccc2ccncc2c1)C(=O)O; Phe(4-CH2COOH) = N[C@@H](Cc1ccc(CC(=O)O)cc1)C(=O)O; Phe(4-NHCONH2) = NC(=O)Nc1ccc(C[C@H](N)C(=O)O)cc1; 3Pal(6-Ph) = N[C@@H](Cc1ccc(-c2ccccc2)nc1)C(=O)O; Phe(4-COOH) = N[C@@H](Cc1ccc(C(=O)O)cc1)C(=O)O; NMe2Nal = CN[C@@H](Cc1ccc2ccccc2c1)C(=O)O; NMeI = CC[C@H](C)[C@H](NC)C(=O)O; NMeQ = CN[C@@H](CCC(N)=O)C(=O)O; MeD = methyl-L-aspartic acid; NMeK = CN[C@@H](CCCCN)C(=O)O; NMeC = CN[C@@H](CS)C(=O)O

B1: Macrocyclic peptide of Example 2-16 (SEQ ID No. 19) (peptide)
peptide: {CH2CO}-[NMeQ][NMeQ]D[NMeQ][Phe(4-COOH)]II[Phe(4-CH2COOH)][NMe2Nal]G[Phe(4-(1-Me-pyrazol-4-yl))][NMeC]-NH2
modifications: thioether N-12
SMILES: CC[C@H](C)[C@@H]1NC(=O)[C@H](Cc2ccc(C(=O)O)cc2)NC(=O)[C@H](CCC(N)=O)N(C)C(=O)[C@H](CC(=O)O)NC(=O)[C@H](CCC(N)=O)N(C)C(=O)[C@H](CCC(N)=O)N(C)C(=O)CSC[C@@H](C(N)=O)N(C)C(=O)[C@H](Cc2ccc(-c3cnn(C)c3)cc2)NC(=O)CNC(=O)[C@H](Cc2ccc3ccccc3c2)N(C)C(=O)[C@H](Cc2ccc(CC(=O)O)cc2)NC(=O)[C@H]([C@@H](C)CC)NC1=O
B2: Macrocyclic peptide of Example 2-17 (SEQ ID No. 20) (peptide)
peptide: {CH2CO}-[NMeQ][NMeQ]D[NMeQ][Phe(4-COOH)]II[F4aao][NMe2Nal]G[Phe(4-(1-Me-pyrazol-4-yl))][NMeC]-NH2
modifications: thioether N-12
SMILES: CC[C@H](C)[C@@H]1NC(=O)[C@H](Cc2ccc(C(=O)O)cc2)NC(=O)[C@H](CCC(N)=O)N(C)C(=O)[C@H](CC(=O)O)NC(=O)[C@H](CCC(N)=O)N(C)C(=O)[C@H](CCC(N)=O)N(C)C(=O)CSC[C@@H](C(N)=O)N(C)C(=O)[C@H](Cc2ccc(-c3cnn(C)c3)cc2)NC(=O)CNC(=O)[C@H](Cc2ccc3ccccc3c2)N(C)C(=O)[C@H](Cc2ccc(OCC(=O)O)cc2)NC(=O)[C@H]([C@@H](C)CC)NC1=O
B3: Macrocyclic peptide of Example 2-20 (SEQ ID No. 38) (peptide)
peptide: {CH2CO}-[NMeQ][MeHseMe]D[NMeQ][Phe(4-COOH)][Thr(Me)]I[F4amCOpipzaa][NMe2Nal]G[3Pal(6-Ph)][NMeC]-NH2
modifications: thioether N-12
SMILES: CC[C@H](C)[C@@H]1NC(=O)[C@H]([C@@H](C)OC)NC(=O)[C@H](Cc2ccc(C(=O)O)cc2)NC(=O)[C@H](CCC(N)=O)N(C)C(=O)[C@H](CC(=O)O)NC(=O)[C@H](CCOC)N(C)C(=O)[C@H](CCC(N)=O)N(C)C(=O)CSC[C@@H](C(N)=O)N(C)C(=O)[C@H](Cc2ccc(-c3ccccc3)nc2)NC(=O)CNC(=O)[C@H](Cc2ccc3ccccc3c2)N(C)C(=O)[C@H](Cc2ccc(CNC(=O)N3CCN(CC(=O)O)CC3)cc2)NC1=O
B4: Macrocyclic peptide of Example 2-21 (SEQ ID No. 39) (peptide)
peptide: {CH2CO}-[NMeQ][MeHseMe]D[NMeQ][Phe(4-COOH)][Thr(Me)]I[Phe(4-NHCONH2)][NMe2Nal]G[3Pal(6-Ph)][NMeC]-NH2
modifications: thioether N-12
SMILES: CC[C@H](C)[C@@H]1NC(=O)[C@H]([C@@H](C)OC)NC(=O)[C@H](Cc2ccc(C(=O)O)cc2)NC(=O)[C@H](CCC(N)=O)N(C)C(=O)[C@H](CC(=O)O)NC(=O)[C@H](CCOC)N(C)C(=O)[C@H](CCC(N)=O)N(C)C(=O)CSC[C@@H](C(N)=O)N(C)C(=O)[C@H](Cc2ccc(-c3ccccc3)nc2)NC(=O)CNC(=O)[C@H](Cc2ccc3ccccc3c2)N(C)C(=O)[C@H](Cc2ccc(NC(N)=O)cc2)NC1=O
B5: Lu-C-42 (peptide)
peptide: {CH2CO}-K[NMeI]D[NMeQ][Phe(4-COOH)]II[F4aao][NMeAla(isoquinolin-7-yl)]G[3Pal(6-Ph)][NMeC]-NH2
modifications: thioether N-12; not fully specified (residue 1); also: DOTA-Lu: cold Lu-175 complex
B6: Lu-C-35 (peptide)
peptide: KQDQFTIFFGXC
modifications: not fully specified; MeK(DOTA-Lu)-MeQ-D-MeQ-F4COO-TMe-I-F4aao-MeNal27N-G-3Py6Ph-MeC-NH2; thioether ring from N-terminal acetyl to MeC12
B7: Macrocyclic peptide of Example 2-11 (SEQ ID No. 14) (peptide)
peptide: {CH2CO}-[NMeQ][NMeQ]K(Ac)[NMeQ][Phe(4-COOH)]II[Phe(4-COOH)][NMe2Nal]G[Phe(4-(1-Me-pyrazol-4-yl))][NMeC]-NH2
modifications: thioether N-12
SMILES: CC[C@H](C)[C@@H]1NC(=O)[C@H](Cc2ccc(C(=O)O)cc2)NC(=O)[C@H](CCC(N)=O)N(C)C(=O)[C@H](CCCCNC(C)=O)NC(=O)[C@H](CCC(N)=O)N(C)C(=O)[C@H](CCC(N)=O)N(C)C(=O)CSC[C@@H](C(N)=O)N(C)C(=O)[C@H](Cc2ccc(-c3cnn(C)c3)cc2)NC(=O)CNC(=O)[C@H](Cc2ccc3ccccc3c2)N(C)C(=O)[C@H](Cc2ccc(C(=O)O)cc2)NC(=O)[C@H]([C@@H](C)CC)NC1=O
B8: Macrocyclic peptide of Example 2-12 (SEQ ID No. 15) (peptide)
peptide: {CH2CO}-[NMeQ][NMeQ]D[MeA4paa][Phe(4-COOH)]II[Phe(4-COOH)][NMe2Nal]G[Phe(4-(1-Me-pyrazol-4-yl))][NMeC]-NH2
modifications: thioether N-12
SMILES: CC[C@H](C)[C@@H]1NC(=O)[C@H](Cc2ccc(C(=O)O)cc2)NC(=O)[C@H](CC2CCN(CC(=O)O)CC2)N(C)C(=O)[C@H](CC(=O)O)NC(=O)[C@H](CCC(N)=O)N(C)C(=O)[C@H](CCC(N)=O)N(C)C(=O)CSC[C@@H](C(N)=O)N(C)C(=O)[C@H](Cc2ccc(-c3cnn(C)c3)cc2)NC(=O)CNC(=O)[C@H](Cc2ccc3ccccc3c2)N(C)C(=O)[C@H](Cc2ccc(C(=O)O)cc2)NC(=O)[C@H]([C@@H](C)CC)NC1=O
B9: Macrocyclic peptide of Example 2-14 (SEQ ID No. 17) (peptide)
peptide: {CH2CO}-[NMeQ][NMeQ]D[NMeQ][F4aao(4)]II[Phe(4-COOH)][NMe2Nal]G[Phe(4-(1-Me-pyrazol-4-yl))][NMeC]-NH2
modifications: thioether N-12
SMILES: CC[C@H](C)[C@@H]1NC(=O)[C@H](Cc2ccc(OCC(=O)O)cc2)NC(=O)[C@H](CCC(N)=O)N(C)C(=O)[C@H](CC(=O)O)NC(=O)[C@H](CCC(N)=O)N(C)C(=O)[C@H](CCC(N)=O)N(C)C(=O)CSC[C@@H](C(N)=O)N(C)C(=O)[C@H](Cc2ccc(-c3cnn(C)c3)cc2)NC(=O)CNC(=O)[C@H](Cc2ccc3ccccc3c2)N(C)C(=O)[C@H](Cc2ccc(C(=O)O)cc2)NC(=O)[C@H]([C@@H](C)CC)NC1=O

Tests used:
[1] = target: T1, human Glypican3 (R&D systems, catalog number: 2119-GP) (human, UniProt P51654 25-559, limits assumed); experiment: SPR (Biacore T200), Method B-1: human Glypican3 amine-coupled to CM3 chip, peptide as analyte
T1 construct: Bought recombinant protein, amine-coupled to the chip in Method B-1; also called GPC3; hGPC3
Description: A CM3 sensor chip (Cytiva) was inserted into a Biacore T200 (Cytiva), primed three times with a running buffer: HBS-P+, pH 7.4 (Cytiva), and equilibrated at a flow rate of 30 μL/min. Ligand immobilization was performed at a flow rate of 10 μL/min. 50 μL each of 60 mM EDC solution (Cytiva) and 650 mM NHS solution (Cytiva) were mixed, and then reacted at a flow rate of 10 μL/min for 420 seconds, 150 μL of 0.2 μM human Glypican3 (R&D systems, catalog number: 2119-GP) solution which was prepared by diluting with 10 mM acetic acid solution (pH 5.0), was reacted at a flow rate of 10 μL/min for 420 seconds, and Glypican3 was immobilized on the CM3 sensor chip. After immobilization, 1.0 M ethanolamine aqueous solution (Cytiva) was allowed to react for 420 seconds at a flow rate of 10 μL/min for capping. A peptide lysate prepared to 10 mM in DMSO solution was diluted with running buffer to a final concentration of 10 μM peptide lysate. […] Using the above samples, peptide kinetics for Glypican3 was obtained by SPR measurement. Kinetics evaluation of Glypican3 was performed by SPR measurements at a flow rate of 10 μL/min, setting the association time to 120 seconds and the disassociation time to 600 seconds.
(§1) The obtained data by Method B-1, Method B-2, Method B-3 and Method B-4 were analyzed by follow. Single Cycle Kinetics was used as the kinetics evaluation model, and curve fitting was performed using Biacore T200 Evaluation Software Version 3.0 (Cytiva).

[2] = target: T2, Human Glypican3-Fc (ACRO Biosystems, GP3-H5258) (human, UniProt P51654 25-559); experiment: SPR (Biacore T200), Method B-2: human Glypican3-Fc captured by anti-human Fc on CM3 chip, peptide as analyte
T2 construct: Bought fusion protein, captured in Methods B-2, B-3 and B-4; Catalogue number is printed only in Method B-2; not shown: Fc part of the bought fusion
Description: A CM3 sensor chip (Cytiva) was inserted into a Biacore T200 (Cytiva), primed three times with a running buffer: HBS-P-+, pH 7.4 (Cytiva), and equilibrated at a flow rate of 30 μL/min. Using the Anti-Fc Capture Kit (Cytiva), 50 LL each of 60 mM EDC solution (Cytiva) and 650 mM NHS solution (Cytiva) were mixed, and then reacted at a flow rate of 10 μL/min for 420 seconds, 150 μL of […] Anti-human IgG (Fc) Antibody solution was prepared by diluting with 10 mM acetic acid solution (pH 5.0), reacted at a flow rate of 10 μL/min for 420 seconds, and immobilized on a CM3 sensor chip. After immobilization, 1.0 M ethanolamine aqueous solution (Cytiva) was allowed to react for 420 seconds at a flow rate of 10 μL/min for capping. Human Glypican3-Fc (ACRO Biosystems, GP3-H5258) was allowed to react for 60 seconds at a flow rate of 10 μL/min. After capturing human Glypican3-Fc, a peptide solution prepared to 10 mM in DMSO solution was diluted with a running buffer to a final concentration of 10 μM. […] Using the above samples, peptide kinetics for Glypican3 was obtained by SPR measurement. Kinetics evaluation of Glypican3 was performed by SPR measurements at a flow rate of 10 μL/min. setting the association time to 120 seconds and the disassociation time to 600 seconds.
as §1

Row | Binder | Kd [1] [nM] | Kd [2] [nM]
1 | B1 | 3.5 | –
2 | B2 | 1.9 | –
3 | {CH2CO}-[NMeK]([dE-DOTA‑Lu(3)])[NMeI]D[NMeQ][Phe(4-COOH)]II[F4aao(3)][NMeAla(isoquinolin-7-yl)]G[3Pal(6-Ph)][NMeC]-NH2 (thioether N-12) [Lu-C-33] | – | 0.87
4 | B3 | – | 0.7
5 | B4 | – | 0.4
6 | Ac-[NMeK](DOTA‑Lu(3))[MeHseMe(6)]D[NMeQ][Phe(4-COOH)][TMe]IY[NMeAla(isoquinolin-7-yl)]G[3Pal(6-Ph)][NMeC]-NH2 (bridge N-12; not fully specified (bridges); also: cold Lu-175 chelated by DOTA) [Lu-C-45] | – | 0.74
7 | B5 | – | 0.67
8 | B6 | – | 2.03
9 | B7 | 2.5 | –
10 | {CH2CO}-[NMeQ][NMeQ]D[NMeQ][Phe(4-COOH)][Thr(Me)(3)]I[Phe(4-COOH)][NMe2Nal]G[Phe(4-(1-Me-pyrazol-4-yl))][NMeC]-NH2 (thioether N-12) [Macrocyclic peptide of Example 2-15 (SEQ ID No. 18)] | 1.8 | –
11 | B8 | 2.9 | –
12 | {CH2CO}-[NMeQ][NMeQ]D[MeD][Phe(4-COOH)]II[Phe(4-COOH)][NMe2Nal]G[Phe(4-(1-Me-pyrazol-4-yl))][NMeC]-NH2 (thioether N-12) [Macrocyclic peptide of Example 2-13 (SEQ ID No. 16)] | 2.8 | –
13 | B9 | 4.8 | –
